Measured values published in patent US9968935B2, “Devices for cell assays” (Platypus Technologies, LLC, priority 2007, dated 2018).

System: HT-1080 cells
Experiment: Adherence and morphology of HT-1080 cells on photoimmobilized hyaluronic acid, before and after hyaluronidase treatment
Assay type: cell-based
Details: 30 minute treatment, 50 microliters of 1000 U/ml, wells not phototreated with HA
Description: This example describes the ability to block adhesion of HT-1080 cells to a surface coated with hyaluronic acid (HA). The HA was functionalized with a photoactive linker and immobilized to the bottom of a well in a tissue culture plate. The material was prepared by reacting the carboxyl group of HA disaccharides with the amine group of a heterobifunctional crosslinker (4-[p-azidosalicylamido]butylamine, ASBA) via carbodiimide chemistry. The other end of the ASBA crosslinker contains a photoactive group, so this reaction renders the HA photoactive. […] Briefly, the HA was dissolved in MES buffer and reacted with EDC and Sulfo-NHS for 15 min at room temperature. The pH of the buffer was adjusted to ca. 7.0 with concentrated PBS and ASBA was added to the solution and allowed to react for 2 h at room temperature in a light-proof vial. The reaction was quenched using 50 mM Tris. Unreacted components and reaction by-products were removed via dialysis against diH2O using a 3,000 MW exclusion. The reaction product was protected from exposure to light during lyophilization. Three species of photoactive HA were prepared that varied according to the molecular weight of the HA chains: low, medium and high MW chains.
The lyophilized, photoactive HA was reconstituted in PBS and adjusted to a working concentration of 0.2 mg/ml. […]

Substance: Hyaluronidase
- effect of hyaluronidase on cells attached to control wells without HA (morphology, toxicity): did not have a significant effect
- effect of hyaluronidase on cells attached to control wells without HA (morphology, toxicity) (listed as HA-ase): does not cause any gross morphological changes or have any toxic effects
